# Results published in US20230002480A1.
# B1: N49P23 (antibody, V domains shown)
# VH: QVRLVQSGAGARKTGASMKLSCSTSGYTFTTHHGHFINWVRQARGQGLEWMGWMNPMTGQMNIEGKFQGRVTLTRDIYSDTAYMEMTRLTTGDTGTYYCARGDFGQNYPFHYWGQGSLVIVSS
# VL: LSALTQPASVSGSPGQSVTISCSGTNRYLVSWYQQHPDKAPKLIIYDDNKRPSGISDRFSASRPDDTASLTISGLQTGDEATYWCASYERFGGGTRLTVLS
# How the values were obtained:
# Assay in all cases: cell-based or functional assay
# [1] = target: HIV-1 Env of pseudovirus 1056_10_TA11_1826 (HIV-1)
# [2] = target: HIV-1 Env of pseudovirus 191084 B7-19 (HIV-1)
# [3] = target: HIV-1 Env of pseudovirus 211-9 (HIV-1)
# [4] = target: HIV-1 Env of pseudovirus 231965.c01 (HIV-1)
# [5] = target: HIV-1 Env of pseudovirus 231966.c02 (HIV-1)
# [6] = target: HIV-1 Env of pseudovirus 246F C1G (HIV-1)
# [7] = target: HIV-1 Env of pseudovirus 249M B10 (HIV-1)
# [8] = target: HIV-1 Env of pseudovirus 3103.v3.c10 (HIV-1)
# [9] = target: HIV-1 Env of pseudovirus 89-F1_2_25 (HIV-1)
# [10] = target: HIV-1 Env of pseudovirus 928-28 (HIV-1)
# [11] = target: HIV-1 Env of pseudovirus BJOX010000.06.2 (HIV-1)
# [12] = target: HIV-1 Env of pseudovirus C2101.c01 (HIV-1)
# [13] = target: HIV-1 Env of pseudovirus C3347.c11 (HIV-1)
# [14] = target: HIV-1 Env of pseudovirus C4118.c09 (HIV-1)
# [15] = target: HIV-1 Env of pseudovirus CAAN5342.A2 (HIV-1)
# [16] = target: HIV-1 Env of pseudovirus CNE17 (HIV-1)
# [17] = target: HIV-1 Env of pseudovirus CNE19 (HIV-1)
# [18] = target: HIV-1 Env of pseudovirus CNE5 (HIV-1)
# [19] = target: HIV-1 Env of pseudovirus CNE52 (HIV-1)
# [20] = target: HIV-1 Env of pseudovirus CNE53 (HIV-1)
# [21] = target: HIV-1 Env of pseudovirus Ce1086_B2 (HIV-1)
# [22] = target: HIV-1 Env of pseudovirus Ce1176_A3 (HIV-1)
# [23] = target: HIV-1 Env of pseudovirus Ce704809221_1B3 (HIV-1)
# [24] = target: HIV-1 Env of pseudovirus P0402_c2_11 (HIV-1)
# [25] = target: HIV-1 Env of pseudovirus P1981_C5_3 (HIV-1)
# [26] = target: HIV-1 Env of pseudovirus PVO.4 (HIV-1)
# [27] = target: HIV-1 Env of pseudovirus R3265.c06 (HIV-1)
# [28] = target: HIV-1 Env of pseudovirus SC422661.8 (HIV-1)
# [29] = target: HIV-1 Env of pseudovirus X1254_c3 (HIV-1)
# [30] = target: HIV-1 Env of pseudovirus ZM197M.PB7 (HIV-1)
# [31] = target: HIV-1 Env of pseudovirus ZM233M.PB6 (HIV-1)
# [32] = target: HIV-1 Env of pseudovirus ZM53M.PB12 (HIV-1)
# [33] = target: MuLV envelope (negative control pseudovirus)
binder,measurement,setting,value
B1,IC50,[1],0.075 µg/mL
same,IC80,[1],0.483 µg/mL
same,MPI,[1],100
same,IC50,[2],0.013 µg/mL
same,IC80,[2],0.043 µg/mL
same,MPI,[2],100
same,IC50,[3],> 50 µg/mL
same,IC80,[3],> 50 µg/mL
same,MPI,[3],14
same,IC50,[4],> 50 µg/mL
same,IC80,[4],> 50 µg/mL
same,MPI,[4],35
same,IC50,[5],0.035 µg/mL
same,IC80,[5],0.158 µg/mL
same,MPI,[5],100
same,IC50,[6],> 50 µg/mL
same,IC80,[6],> 50 µg/mL
same,MPI,[6],11
same,IC50,[7],> 50 µg/mL
same,IC80,[7],> 50 µg/mL
same,MPI,[7],20
same,IC50,[8],43.8 µg/mL
same,IC80,[8],> 50 µg/mL
same,MPI,[8],54
same,IC50,[9],> 50 µg/mL
same,IC80,[9],> 50 µg/mL
same,MPI,[9],5
same,IC50,[10],0.021 µg/mL
same,IC80,[10],0.122 µg/mL
same,MPI,[10],100
same,IC50,[11],0.284 µg/mL
same,IC80,[11],2.08 µg/mL
same,MPI,[11],100
same,IC50,[12],0.056 µg/mL
same,IC80,[12],0.362 µg/mL
same,MPI,[12],100
same,IC50,[13],0.007 µg/mL
same,IC80,[13],0.032 µg/mL
same,MPI,[13],100
same,IC50,[14],0.026 µg/mL
same,IC80,[14],0.12 µg/mL
same,MPI,[14],100
same,IC50,[15],0.412 µg/mL
same,IC80,[15],1.38 µg/mL
same,MPI,[15],100
same,IC50,[16],0.221 µg/mL
same,IC80,[16],0.809 µg/mL
same,MPI,[16],100
same,IC50,[17],> 50 µg/mL
same,IC80,[17],> 50 µg/mL
same,MPI,[17],40
same,IC50,[18],0.058 µg/mL
same,IC80,[18],0.226 µg/mL
same,MPI,[18],100
same,IC50,[19],0.014 µg/mL
same,IC80,[19],0.051 µg/mL
same,MPI,[19],100
same,IC50,[20],0.026 µg/mL
same,IC80,[20],0.095 µg/mL
same,MPI,[20],100
same,IC50,[21],0.063 µg/mL
same,IC80,[21],0.303 µg/mL
same,MPI,[21],100
same,IC50,[22],0.297 µg/mL
same,IC80,[22],1.38 µg/mL
same,MPI,[22],100
same,IC50,[23],0.083 µg/mL
same,IC80,[23],0.643 µg/mL
same,MPI,[23],100
same,IC50,[24],0.022 µg/mL
same,IC80,[24],0.065 µg/mL
same,MPI,[24],100
same,IC50,[25],0.096 µg/mL
same,IC80,[25],0.264 µg/mL
same,MPI,[25],100
same,IC50,[26],0.087 µg/mL
same,IC80,[26],0.43 µg/mL
same,MPI,[26],100
same,IC50,[27],> 50 µg/mL
same,IC80,[27],> 50 µg/mL
same,MPI,[27],0
same,IC50,[28],0.069 µg/mL
same,IC80,[28],0.245 µg/mL
same,MPI,[28],100
same,IC50,[29],0.022 µg/mL
same,IC80,[29],0.111 µg/mL
same,MPI,[29],100
same,IC50,[30],0.1 µg/mL
same,IC80,[30],0.385 µg/mL
same,MPI,[30],100
same,IC50,[31],> 50 µg/mL
same,IC80,[31],> 50 µg/mL
same,MPI,[31],14
same,IC50,[32],0.135 µg/mL
same,IC80,[32],0.651 µg/mL
same,MPI,[32],100
same,IC50,[33],> 50 µg/mL
same,IC80,[33],> 50 µg/mL
same,MPI,[33],9
